Experimental data published in patent US20240376186A1 (AARHUS UNIVERSITET, published 2024).
Values belong to the binder of their own block, whether it stands above or below them.

Columns and labels:
native C3 = target: T1, native C3 (human, UniProt P01024 23-667; P01024 668-1663); assay: size exclusion chromatography
T1 construct: also called Complement component 3
Experimental: (§1) Size exclusion chromatography assay. 200 μg C3b was mixed with a 2-fold molar excess of EWE-hC3Nb1 or left untreated. The mix was diluted to 400 μL in 20 mM HEPES pH 7.5, 150 mM NaCl and applied to a Superdex 200 increase (GE Healthcare) column equilibrated in dilution buffer. SEC assaying binding of EWE-hC3Nb1 to native C3 was performed similarly. Peak fraction were analyzed by SDS PAGE.

C3b [1] = target: T2, C3b (human, UniProt P01024 23-667; P01024 749-1663); assay: size exclusion chromatography, 2-fold molar excess of EWE-hC3Nb1; SDS-PAGE of peak fractions confirmed the complex
T2 construct: also called human C3b
T2 sequence (P01024 23-667 limits assumed, chain 1 of 2): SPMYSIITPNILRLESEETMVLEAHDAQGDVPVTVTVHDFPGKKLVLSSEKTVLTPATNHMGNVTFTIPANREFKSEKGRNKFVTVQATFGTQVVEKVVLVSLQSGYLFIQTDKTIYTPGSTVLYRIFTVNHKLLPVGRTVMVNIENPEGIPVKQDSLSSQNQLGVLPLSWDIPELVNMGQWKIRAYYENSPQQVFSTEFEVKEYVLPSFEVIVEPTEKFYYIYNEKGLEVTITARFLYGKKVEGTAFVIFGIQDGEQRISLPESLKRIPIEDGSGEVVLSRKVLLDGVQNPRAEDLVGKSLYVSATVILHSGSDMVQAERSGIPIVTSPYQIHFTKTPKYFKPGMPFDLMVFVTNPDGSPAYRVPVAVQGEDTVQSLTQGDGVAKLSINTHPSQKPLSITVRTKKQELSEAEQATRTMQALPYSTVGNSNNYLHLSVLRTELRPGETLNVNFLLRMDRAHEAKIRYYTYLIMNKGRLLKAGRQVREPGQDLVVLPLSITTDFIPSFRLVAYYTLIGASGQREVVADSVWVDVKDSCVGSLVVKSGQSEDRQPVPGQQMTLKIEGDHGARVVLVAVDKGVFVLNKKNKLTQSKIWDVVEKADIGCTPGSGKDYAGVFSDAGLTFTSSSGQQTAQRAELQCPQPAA
T2 sequence (P01024 749-1663 limits assumed, chain 2 of 2): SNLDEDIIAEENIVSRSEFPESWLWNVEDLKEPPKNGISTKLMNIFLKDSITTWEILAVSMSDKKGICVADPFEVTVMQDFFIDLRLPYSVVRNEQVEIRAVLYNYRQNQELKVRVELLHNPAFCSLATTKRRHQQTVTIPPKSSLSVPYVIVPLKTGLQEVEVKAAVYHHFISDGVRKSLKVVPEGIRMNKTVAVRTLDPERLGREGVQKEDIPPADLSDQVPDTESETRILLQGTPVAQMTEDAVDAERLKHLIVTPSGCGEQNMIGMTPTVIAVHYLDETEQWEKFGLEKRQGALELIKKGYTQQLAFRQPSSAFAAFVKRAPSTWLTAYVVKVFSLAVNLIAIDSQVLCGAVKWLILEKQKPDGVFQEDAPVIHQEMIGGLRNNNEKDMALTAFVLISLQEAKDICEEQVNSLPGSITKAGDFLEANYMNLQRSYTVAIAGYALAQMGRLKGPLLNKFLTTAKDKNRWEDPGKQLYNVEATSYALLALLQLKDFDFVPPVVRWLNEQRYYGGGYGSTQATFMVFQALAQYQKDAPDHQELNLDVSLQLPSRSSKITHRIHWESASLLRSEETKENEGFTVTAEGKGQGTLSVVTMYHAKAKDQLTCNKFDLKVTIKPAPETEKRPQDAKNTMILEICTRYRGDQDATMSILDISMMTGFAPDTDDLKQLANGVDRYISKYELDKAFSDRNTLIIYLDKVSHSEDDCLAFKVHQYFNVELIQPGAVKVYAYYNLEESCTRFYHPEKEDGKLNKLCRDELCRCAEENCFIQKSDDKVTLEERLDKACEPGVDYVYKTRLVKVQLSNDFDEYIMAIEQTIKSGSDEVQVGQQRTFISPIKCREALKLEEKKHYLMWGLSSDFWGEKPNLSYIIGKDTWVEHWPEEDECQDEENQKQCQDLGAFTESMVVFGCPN
Experimental: as §1

C3b [2] = target: T2, C3b; assay: bio-layer interferometry, binder on anti-penta his biosensors; reference EWE-hC3Nb1 on C3b
Experimental: FIGS. 8A-8B Bio-layer interferometry-based analysis of EWEμH. (FIG. 8A) Anti-penta his biosensors were coated with EWEμH. The sensors were transferred into a dilution series from 1.5625-50 nM C3b. (FIG. 8B) Anti-penta his biosensors were coated with EWEμH and transferred into an iC3b dilution series ranging from 3.125-50 nM.
(§2) Bio-layer interferometry experiments. All experiments were performed in 20 mM HEPES pH 7.5, […]. All experiments were performed on an Octet RED96 (Fortébio Pall Corporation) instrument operating at 30° C., shaking at 1000 rpm. EWE-hC3Nb1, EWEμH or EWEnH was immobilized on anti-penta his biosensor (Fortebio Pall Corporation) and the sensors were transferred into dilution series of C3b or iC3b. Measurements of 0 nM analyte were subtracted from sensorgrams for normalization and the sensorgrams were fitted to a 1:1 binding model using the GraphPad Prism (version 6.01) software.

C3b [3] = target: T2, C3b; assay: bio-layer interferometry, summary of affinities (FIG. 10)
Experimental: FIGS. 9A-9B Bio-layer interferometry-based analysis of EWEnH. (FIG. 9A) Anti-penta his biosensors were coated with EWEnH. The sensors were transferred into a dilution series from 3.125-100 nM C3b. (FIG. 9B) Anti-penta his biosensors were coated with EWEnH. The iC3b concentration tested ranged from 6.25-100 nM.
as §2

T1 sequence (P01024 23-667, chain 1 of 2): as the sequence (P01024 23-667 limits assumed, chain 1 of 2) above
T1 sequence (P01024 668-1663, chain 2 of 2): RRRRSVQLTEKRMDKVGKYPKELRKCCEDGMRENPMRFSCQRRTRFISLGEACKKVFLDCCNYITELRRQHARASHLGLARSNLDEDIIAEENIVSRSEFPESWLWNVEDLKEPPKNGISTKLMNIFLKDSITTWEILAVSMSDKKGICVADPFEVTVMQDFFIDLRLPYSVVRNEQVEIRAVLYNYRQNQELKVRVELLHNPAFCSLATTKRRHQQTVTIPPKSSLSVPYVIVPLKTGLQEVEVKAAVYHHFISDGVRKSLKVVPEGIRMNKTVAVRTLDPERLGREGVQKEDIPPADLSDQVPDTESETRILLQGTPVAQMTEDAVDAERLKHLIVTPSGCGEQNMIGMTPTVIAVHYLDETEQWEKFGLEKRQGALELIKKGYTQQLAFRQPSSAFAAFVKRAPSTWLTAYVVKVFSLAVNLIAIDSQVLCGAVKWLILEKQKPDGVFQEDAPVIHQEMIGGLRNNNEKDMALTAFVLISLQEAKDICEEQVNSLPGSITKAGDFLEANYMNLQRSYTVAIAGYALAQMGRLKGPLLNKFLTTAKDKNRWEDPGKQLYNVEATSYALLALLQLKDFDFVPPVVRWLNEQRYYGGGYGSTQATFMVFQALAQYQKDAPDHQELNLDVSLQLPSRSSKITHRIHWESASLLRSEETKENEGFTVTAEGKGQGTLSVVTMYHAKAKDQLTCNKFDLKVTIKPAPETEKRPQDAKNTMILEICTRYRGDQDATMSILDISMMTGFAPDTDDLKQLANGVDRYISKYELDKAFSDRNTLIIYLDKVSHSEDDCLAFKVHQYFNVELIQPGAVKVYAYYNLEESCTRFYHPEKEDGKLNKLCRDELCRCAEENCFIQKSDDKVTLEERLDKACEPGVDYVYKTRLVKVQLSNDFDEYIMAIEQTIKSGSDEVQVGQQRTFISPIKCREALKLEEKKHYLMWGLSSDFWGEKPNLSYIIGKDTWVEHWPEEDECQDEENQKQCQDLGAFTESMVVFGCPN

- binding result (C3b [1]): binds
B1: EWE-hC3Nb1 (VHH)
VHH: QVQLVETGGGLVQAGGSLRLSCAASGSIFSINAMGWFRQAPGKEREFVATINRSGGRTYYADSVKGRFTISRDNGKNMVYLQMHSLKPEDTAIYYCAAGTGWSPQTDNEYNYWGQGTQVTVSS
notes: hC3Nb1 with an N-terminal Glu-Trp-Glu motif; expressed in E. coli; also called single domain antibody EWE-hC3Nb1; EWE-hC3Nb1 nanobody; not shown: His tag implied by HisTrap purification and capture on anti-penta his biosensors
- binding result (native C3): no binding (tested: 2-fold molar excess of EWE-hC3Nb1)

- fold stronger binding than EWE-hC3Nb1 (C3b [2]): ~10 fold
B2: EWEµH (other)
chain: EWEQVQLVETGGGLVQAGGSLRLSCAASGSIFSINAMGWFRQAPGKEREFVATINRSGGRTYYADSVKGRFTISRDNGKNMVYLQMHSLKPEDTAIYYCAAGTGWSPQTDNEYNYWGQGTQVTVSSGGGGSGGGGSGGGGSGGGGSRPCGHPGDTPFGTFTLTGGNVFEYGVKAVYTCNEGYQLLGEINYRECDTDGWTNDIPICEVVKCLPVTAPENGKIVSSAMEPDREYHFGQAVRFVCNSGYKIEGDEEMHCSDDGFWSKEKPKCVEISCKSPDVINGSPISQKIIYKENERFQYKCNMGYEYSERGDAVCTESGWRPLPSCEEAGGGGGGGGGGGGGKCGPPPPIDNGDITSFPLSVYAPASSVEYQCQNLYQLEGNKRITCRNGQWSEPPKCLHPCVISREIMENYNIALRWTAKQKLYSRTGESVEFVCKRGYRLSSRSHTLRTTCWDGKLEYPTCAKRENLYFQG
notes: expressed in HEK293 cells; also called EWEuH; fusion EWEµH; not shown: His tag implied by HisTrap purification and capture on anti-penta his biosensors

- binding result (C3b [3]): binds
B3: EWEnH (other)
chain: EWEQVQLVETGGGLVQAGGSLRLSCAASGSIFSINAMGWFRQAPGKEREFVATINRSGGRTYYADSVKGRFTISRDNGKNMVYLQMHSLKPEDTAIYYCAAGTGWSPQTDNEYNYWGQGTQVTVSSGGGGSGGGGSGGGGSGGGGSRPCGHPGDTPFGTFTLTGGNVFEYGVKAVYTCNEGYQLLGEINYRECDTDGWTNDIPICEVVKCLPVTAPENGKIVSSAMEPDREYHFGQAVRFVCNSGYKIEGDEEMHCSDDGFWSKEKPKCVEISCKSPDVINGSPISQKIIYKENERFQYKCNMGYEYSERGDAVCTESGWRPLPSCEEA
notes: expressed in HEK293 cells; also called fusion protein EWEnH; not shown: His tag implied by HisTrap purification and capture on anti-penta his biosensors
